Source: PMC8064030

Target: HIV-1 CA carrying the A92E substitution (HIV-1)
Test: cryo-EM structure

## HIV-1 CA carrying the A92E substitution (natural protein)
  stoichiometry N: 6
